The assay deals with HLA-A*02:01 (Homo sapiens, UniProt P04439, D140Y/D185E/D98H/E176V/E277Q/G131W/G231S/I119V/I121R/I166T/I218V/L300P/L318F/N151K/N90K/P208A/P217A/Q86G/Q94H/R138H/R169H/T345S). In words: MHC binding assay: UV-ligand exchange with β2m ELISA (peptide exchange yield). Particulars: MHC class I binding score; binding to HLA-A*02:01 ranged by peptide exchange yield (UV-ligand exchange, β2m ELISA). Summed up: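 Peptide–MHC complexes formed by UV-ligand exchange, cleaving a UV-sensitive peptide so the test peptide can bind. Exchange yield measured by ELISA: complexes captured on streptavidin-coated wells, diluted 100-fold, detected with HRP anti-β2m (1 h, 37 °C) and TMB at 450 nm, against refolded HLA-A*02:01/MLA-001 standards (15-500 ng/ml).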
On the technique in general: An ELISA detects its analyte on a solid surface through an enzyme-linked reagent.

As for “331 (VLWELAHLPTL; listed as Homo sapiens) [compound 331]”, the “Peptide Exchange” value is reported as “″+++″ (≥50 = +++)”.

Turning to “333 (VTLEFPQLIRV; listed as Homo sapiens) [compound 333]”, the “Peptide Exchange” value was “″+++″ (≥50 = +++)”.

As for “334 (YLLEEKIASL; listed as Homo sapiens) [compound 334]”, the “Peptide Exchange” value was “″+++″ (≥50 = +++)”.

Regarding “335 (YLYQEQYFI; listed as Homo sapiens) [compound 335]”, the “Peptide Exchange” value is reported as “″+++″ (≥50 = +++)”.

Turning to “336 (YMAVTTQEV; listed as Homo sapiens) [compound 336]”, the “Peptide Exchange” value was “″++++″ (≥75% = ++++)”.

For the substance “337 (YMYEKESEL; listed as Homo sapiens) [compound 337]”, the “Peptide Exchange” value is reported as “″++″ (≥20% = ++)”.

Regarding “338 (FLDMTNWNL; listed as Homo sapiens) [compound 338]”, the “Peptide Exchange” value is reported as “″++++″ (≥75% = ++++)”.

As to “339 (GLWGTVVNI; listed as Homo sapiens) [compound 339]”, the “Peptide Exchange” value is “″+++″ (≥50 = +++)”.

“340 (KLLEEICNL; listed as Homo sapiens) [compound 340]”: the “Peptide Exchange” value is listed as “″++++″ (≥75% = ++++)”.

For “341 (LLAELPASVHA; listed as Homo sapiens) [compound 341]”, the “Peptide Exchange” value is given as “″+++″ (≥50 = +++)”.

Regarding “342 (SLITPLQAV; listed as Homo sapiens) [compound 342]”, the “Peptide Exchange” value is listed as “″+++″ (≥50 = +++)”.

In the case of “344 (VLAFENPQV; listed as Homo sapiens) [compound 344]”, the “Peptide Exchange” value is “″+++″ (≥50 = +++)”.

For the substance “345 (YLIEPDVELQRI; listed as Homo sapiens) [compound 345]”, the “Peptide Exchange” value is “″+++″ (≥50 = +++)”.

For “346 (VLVQVSPSL; listed as Homo sapiens) [compound 346]”, the “Peptide Exchange” value is on record as “″+++″ (≥50 = +++)”.

Regarding “347 (YLGPVSPSL; listed as Homo sapiens) [compound 347]”, the “Peptide Exchange” value was “″+++″ (≥50 = +++)”.

Consider “348 (ALAKPPVVSV; listed as Homo sapiens) [compound 348]”, for which the “Peptide Exchange” value is given as “″+++″ (≥50 = +++)”.

Consider “349 (ALATHILSL; listed as Homo sapiens) [compound 349]”, for which the “Peptide Exchange” value was “″+++″ (≥50 = +++)”.

As to “350 (ALEDRVWEL; listed as Homo sapiens) [compound 350]”, the “Peptide Exchange” value is on record as “″+++″ (≥50 = +++)”.

On to “351 (ALSEKLARL; listed as Homo sapiens) [compound 351]”, for which the “Peptide Exchange” value is reported as “″+++″ (≥50 = +++)”.

Turning to “352 (ALVFELHYV; listed as Homo sapiens) [compound 352]”, the “Peptide Exchange” value is listed as “″+++″ (≥50 = +++)”.

“353 (ATPMPTPSV; listed as Homo sapiens) [compound 353]”: the “Peptide Exchange” value was “″++″ (≥20% = ++)”.

Take “354 (FIMDDPAGNSYL; listed as Homo sapiens) [compound 354]”: the “Peptide Exchange” value is reported as “″+++″ (≥50 = +++)”.

For the substance “355 (FIWPMLIHI; listed as Homo sapiens) [compound 355]”, the “Peptide Exchange” value is recorded as “″+++″ (≥50 = +++)”.

Consider “356 (FLHDHQAEL; listed as Homo sapiens) [compound 356]”, for which the “Peptide Exchange” value is “″++″ (≥20% = ++)”.

Regarding “357 (FLIQEIKTL; listed as Homo sapiens) [compound 357]”, the “Peptide Exchange” value is “″+++″ (≥50 = +++)”.

As for “358 (FLTDYLNDL; listed as Homo sapiens) [compound 358]”, the “Peptide Exchange” value is given as “″+++″ (≥50 = +++)”.

Turning to “359 (FMQDPMEVFV; listed as Homo sapiens) [compound 359]”, the “Peptide Exchange” value is reported as “″+++″ (≥50 = +++)”.

For the substance “360 (HLIDTNKIQL; listed as Homo sapiens) [compound 360]”, the “Peptide Exchange” value was “″+++″ (≥50 = +++)”.

Consider “361 (ILQEFESKL; listed as Homo sapiens) [compound 361]”, for which the “Peptide Exchange” value is recorded as “″+++″ (≥50 = +++)”.

Turning to “362 (ILTELGGFEV; listed as Homo sapiens) [compound 362]”, the “Peptide Exchange” value was “″+++″ (≥50 = +++)”.

For the substance “363 (ITTEVVNELYV; listed as Homo sapiens) [compound 363]”, the “Peptide Exchange” value is reported as “″+++″ (≥50 = +++)”.

Take “364 (KMDWIFHTI; listed as Homo sapiens) [compound 364]”: the “Peptide Exchange” value is “″+++″ (≥50 = +++)”.

For “365 (LISPLLLPV; listed as Homo sapiens) [compound 365]”, the “Peptide Exchange” value is given as “″+++″ (≥50 = +++)”.

For “367 (NLWSLVAKV; listed as Homo sapiens) [compound 367]”, the “Peptide Exchange” value was “″+++″ (≥50 = +++)”.

In the case of “369 (RLLDLENSLLGL; listed as Homo sapiens) [compound 369]”, the “Peptide Exchange” value is recorded as “″+++″ (≥50 = +++)”.

Take “370 (SIFASPESV; listed as Homo sapiens) [compound 370]”: the “Peptide Exchange” value is on record as “″+++″ (≥50 = +++)”.

Turning to “371 (SLADDSVLERL; listed as Homo sapiens) [compound 371]”, the “Peptide Exchange” value was “″+++″ (≥50 = +++)”.

For the substance “372 (SLFGPLPGPGPALV; listed as Homo sapiens) [compound 372]”, the “Peptide Exchange” value is reported as “″+++″ (≥50 = +++)”.

On to “373 (TLLADQGEIRV; listed as Homo sapiens) [compound 373]”, for which the “Peptide Exchange” value is recorded as “″++″ (≥20% = ++)”.

On to “374 (VLSVITEEL; listed as Homo sapiens) [compound 374]”, for which the “Peptide Exchange” value is given as “″+++″ (≥50 = +++)”.

As for “375 (VLWFKPVEL; listed as Homo sapiens) [compound 375]”, the “Peptide Exchange” value is on record as “″+++″ (≥50 = +++)”.

Turning to “376 (VLYNQRVEEI; listed as Homo sapiens) [compound 376]”, the “Peptide Exchange” value is “″+++″ (≥50 = +++)”.

For “377 (VVDGTCVAV; listed as Homo sapiens) [compound 377]”, the “Peptide Exchange” value is given as “″+++″ (≥50 = +++)”.

For “378 (YILGKFFAL; listed as Homo sapiens) [compound 378]”, the “Peptide Exchange” value was “″+++″ (≥50 = +++)”.

Turning to “379 (YLAELVTPIL; listed as Homo sapiens) [compound 379]”, the “Peptide Exchange” value was “″+++″ (≥50 = +++)”.

As to “381 (YLLEENKIKL; listed as Homo sapiens) [compound 381]”, the “Peptide Exchange” value is listed as “″+++″ (≥50 = +++)”.

On to “382 (YLLPLLQRL; listed as Homo sapiens) [compound 382]”, for which the “Peptide Exchange” value is given as “″++++″ (≥75% = ++++)”.

Regarding “383 (YLLREWVNL; listed as Homo sapiens) [compound 383]”, the “Peptide Exchange” value is given as “″++++″ (≥75% = ++++)”.

In the case of “384 (YMIGSEVGNYL; listed as Homo sapiens) [compound 384]”, the “Peptide Exchange” value was “″++++″ (≥75% = ++++)”.

As to “385 (YTIPLAIKL; listed as Homo sapiens) [compound 385]”, the “Peptide Exchange” value was “″+++″ (≥50 = +++)”.

The values above are taken from patent US10117916B2, “Peptides and combination of peptides for use in immunotherapy against CLL and other cancers” (immatics biotechnologies GmbH, priority 2015, dated 2018).
